This passage reports screen value results from publication PMC7954794 (2021).

B1: S. cerevisiae Abp1 (full length; SH3 domain 535-592 mutated) / Hua2 (parent complex)
chain 1: MALEPIDYTTHSREIDAEYLKIVRGSDPDTTWLIISPNAKKEYEPESTGSSFHDFLQLFDETKVQYGLARVSPPGSDVEKIIIIGWCPDSAPLKTRASFAANFAAVANNLFKGYHVQVTARDEDDLDENELLMKISNAAGARYSIQTSSKQQGKASTPPVKKSFTPSKSPAPVSKKEPVKTPSPAPAAKISSRVNDNNDDDDWNEPELKERDFDQAPLKPNQSSYKPIGKIDLQKVIAEEKAKEDPRLVQKPTAAGSKIDPSSDIANLKNESKLKRDSEFNSFLGTTKPPSMTESSLKNDDDKVIKGFRNEKSPAQLWAERKAKQNSGNAETKAEAPKPEVPEDEPEGEPDVKDLKSKFEGLAASEKEEEEMENKFAPPPKKSEPTIISPKPFSKPQEPVKAEEAEQPKTDYKKIGNPLPGMHIEADNEEEPEENDDDWDDDEDEAAQPPLPSRNVASGAPVQKEEPEQEEIAPSLPSRNSIPAPKQEEAPEQAPEEEIEEEAEEAAPQLPSRSSAAPPPPPRRATPEKKPKENPWATAEYDYDAAEDNELTFVENDKIINIEFVDDDWWLGELEKDGSKGLFPSNYVSLGN
chain 2: MQQTKFGKMYLDHDSVVEYSEDEIVEADRITLGYKKRLSMIENQMRHLLEDFSLDVQQIEPILADLQKYYDAFLQLLQKRNKSLQCKRSTHQPVPSPMNSQTSTNAKVNLSGKLMKFQLNSVQKFDEENILRILQNKIEFEHYFQIDKGKKQKVLLLAVYQCLNGPTRLHKVLNIEGIIHNNSIRTILGKQVSSSKWTVFLYDVKLVLLAHRQDVPNLETSKMIVRYGDLFPCALYFKDHTAY

Variants of B1 are the subject of this test. The experiment in a line: DHFR protein-fragment complementation in yeast (Abp1-DHFR F[1,2] x partner-DHFR F[3]), deep mutational scanning, second methotrexate selection vs reference; S. cerevisiae, DHFR-PCA selection in liquid with methotrexate at 30 C, two 72 h selections (the score uses the second); reference = the pre-selection culture.
Turning to chain 1 V554N, the screen value was 0.128 DMS score: mean over two replicates of log2(f_test/f_ref + 0.5)/ln 2, minus the synonymous-codon median (not a log2 ….
Under chain 1 V554M stands -0.0016 DMS score: mean over two replicates of log2(f_test/f_ref + 0.5)/ln 2, minus the synonymous-codon median (not a log2 ….
With chain 1 V554E, the screen value was 0.602 DMS score: mean over two replicates of log2(f_test/f_ref + 0.5)/ln 2, minus the synonymous-codon median (not a log2 ….
On to chain 1 V554D, for which the screen value was 0.269 DMS score: mean over two replicates of log2(f_test/f_ref + 0.5)/ln 2, minus the synonymous-codon median (not a log2 ….
Under chain 1 V554F stands 0.446 DMS score: mean over two replicates of log2(f_test/f_ref + 0.5)/ln 2, minus the synonymous-codon median (not a log2 …; under chain 1 V554G, 0.246 DMS score: mean over two replicates of log2(f_test/f_ref + 0.5)/ln 2, minus the synonymous-codon median (not a log2 …; under chain 1 S589G, 0.273 DMS score: mean over two replicates of log2(f_test/f_ref + 0.5)/ln 2, minus the synonymous-codon median (not a log2 ….
The figure for chain 1 S589H is 0.128 DMS score: mean over two replicates of log2(f_test/f_ref + 0.5)/ln 2, minus the synonymous-codon median (not a log2 …; for chain 1 S589T it is 0.254 DMS score: mean over two replicates of log2(f_test/f_ref + 0.5)/ln 2, minus the synonymous-codon median (not a log2 ….
The figure for chain 1 S589Q is 0.838 DMS score: mean over two replicates of log2(f_test/f_ref + 0.5)/ln 2, minus the synonymous-codon median (not a log2 …; for chain 1 S589R it is 1.04 DMS score: mean over two replicates of log2(f_test/f_ref + 0.5)/ln 2, minus the synonymous-codon median (not a log2 ….
chain 1 S589N: the screen value is 1.22 DMS score: mean over two replicates of log2(f_test/f_ref + 0.5)/ln 2, minus the synonymous-codon median (not a log2 ….
The figure for chain 1 S589L is 0.723 DMS score: mean over two replicates of log2(f_test/f_ref + 0.5)/ln 2, minus the synonymous-codon median (not a log2 …; for chain 1 S589I it is 0.802 DMS score: mean over two replicates of log2(f_test/f_ref + 0.5)/ln 2, minus the synonymous-codon median (not a log2 …; for chain 1 S589F it is -0.753 DMS score: mean over two replicates of log2(f_test/f_ref + 0.5)/ln 2, minus the synonymous-codon median (not a log2 ….
The figure for chain 1 S589D is 0.916 DMS score: mean over two replicates of log2(f_test/f_ref + 0.5)/ln 2, minus the synonymous-codon median (not a log2 …; for chain 1 W569Q it is -2.81 DMS score: mean over two replicates of log2(f_test/f_ref + 0.5)/ln 2, minus the synonymous-codon median (not a log2 ….
Under chain 1 N586Q stands -1.03 DMS score: mean over two replicates of log2(f_test/f_ref + 0.5)/ln 2, minus the synonymous-codon median (not a log2 ….
With chain 1 N586V, the screen value is 1.04 DMS score: mean over two replicates of log2(f_test/f_ref + 0.5)/ln 2, minus the synonymous-codon median (not a log2 ….
The figure for chain 1 N586C is 2.04 DMS score: mean over two replicates of log2(f_test/f_ref + 0.5)/ln 2, minus the synonymous-codon median (not a log2 …; for chain 1 N586G it is 2.37 DMS score: mean over two replicates of log2(f_test/f_ref + 0.5)/ln 2, minus the synonymous-codon median (not a log2 ….
The figure for chain 1 N586A is 1.82 DMS score: mean over two replicates of log2(f_test/f_ref + 0.5)/ln 2, minus the synonymous-codon median (not a log2 …; for chain 1 N586T it is 1.83 DMS score: mean over two replicates of log2(f_test/f_ref + 0.5)/ln 2, minus the synonymous-codon median (not a log2 ….
On to chain 1 N586S, for which the screen value was 2 DMS score: mean over two replicates of log2(f_test/f_ref + 0.5)/ln 2, minus the synonymous-codon median (not a log2 ….
Turning to chain 1 T552K, the screen value is -0.621 DMS score: mean over two replicates of log2(f_test/f_ref + 0.5)/ln 2, minus the synonymous-codon median (not a log2 ….
The figure for chain 1 K580N is -0.698 DMS score: mean over two replicates of log2(f_test/f_ref + 0.5)/ln 2, minus the synonymous-codon median (not a log2 …; for chain 1 K580F it is 0.0243 DMS score: mean over two replicates of log2(f_test/f_ref + 0.5)/ln 2, minus the synonymous-codon median (not a log2 ….
The figure for chain 1 K580E is -0.984 DMS score: mean over two replicates of log2(f_test/f_ref + 0.5)/ln 2, minus the synonymous-codon median (not a log2 …; for chain 1 K580Q it is 0.294 DMS score: mean over two replicates of log2(f_test/f_ref + 0.5)/ln 2, minus the synonymous-codon median (not a log2 …; for chain 1 K580S it is -0.00598 DMS score: mean over two replicates of log2(f_test/f_ref + 0.5)/ln 2, minus the synonymous-codon median (not a log2 ….
The figure for chain 1 N549C is 2.18 DMS score: mean over two replicates of log2(f_test/f_ref + 0.5)/ln 2, minus the synonymous-codon median (not a log2 …; for chain 1 N549S it is 1.83 DMS score: mean over two replicates of log2(f_test/f_ref + 0.5)/ln 2, minus the synonymous-codon median (not a log2 ….
Regarding chain 1 N549E, the screen value is 1.95 DMS score: mean over two replicates of log2(f_test/f_ref + 0.5)/ln 2, minus the synonymous-codon median (not a log2 ….
chain 1 N549L: the screen value is 0.763 DMS score: mean over two replicates of log2(f_test/f_ref + 0.5)/ln 2, minus the synonymous-codon median (not a log2 ….
With chain 1 N549I, the screen value was 0.356 DMS score: mean over two replicates of log2(f_test/f_ref + 0.5)/ln 2, minus the synonymous-codon median (not a log2 ….
Under chain 1 N549Q stands 1.15 DMS score: mean over two replicates of log2(f_test/f_ref + 0.5)/ln 2, minus the synonymous-codon median (not a log2 ….
The figure for chain 1 N549D is 0.4 DMS score: mean over two replicates of log2(f_test/f_ref + 0.5)/ln 2, minus the synonymous-codon median (not a log2 ….
Under chain 1 F553L stands 0.618 DMS score: mean over two replicates of log2(f_test/f_ref + 0.5)/ln 2, minus the synonymous-codon median (not a log2 …; under chain 1 I562L, -0.495 DMS score: mean over two replicates of log2(f_test/f_ref + 0.5)/ln 2, minus the synonymous-codon median (not a log2 …; under chain 1 S585P, -2.72 DMS score: mean over two replicates of log2(f_test/f_ref + 0.5)/ln 2, minus the synonymous-codon median (not a log2 ….
As for chain 1 S585G, the screen value is -1.85 DMS score: mean over two replicates of log2(f_test/f_ref + 0.5)/ln 2, minus the synonymous-codon median (not a log2 ….
In the case of chain 1 S585T, the screen value is -0.67 DMS score: mean over two replicates of log2(f_test/f_ref + 0.5)/ln 2, minus the synonymous-codon median (not a log2 ….
The figure for chain 1 S585M is 0.746 DMS score: mean over two replicates of log2(f_test/f_ref + 0.5)/ln 2, minus the synonymous-codon median (not a log2 ….
chain 1 S585C: the screen value was 1.03 DMS score: mean over two replicates of log2(f_test/f_ref + 0.5)/ln 2, minus the synonymous-codon median (not a log2 ….
Under chain 1 D548T stands 0.434 DMS score: mean over two replicates of log2(f_test/f_ref + 0.5)/ln 2, minus the synonymous-codon median (not a log2 ….
Under chain 1 D548I stands -0.724 DMS score: mean over two replicates of log2(f_test/f_ref + 0.5)/ln 2, minus the synonymous-codon median (not a log2 ….
Regarding chain 1 D548N, the screen value is 0.0071 DMS score: mean over two replicates of log2(f_test/f_ref + 0.5)/ln 2, minus the synonymous-codon median (not a log2 ….
The figure for chain 1 A546G is 0.413 DMS score: mean over two replicates of log2(f_test/f_ref + 0.5)/ln 2, minus the synonymous-codon median (not a log2 ….
For the variant chain 1 A546V, the screen value is -0.179 DMS score: mean over two replicates of log2(f_test/f_ref + 0.5)/ln 2, minus the synonymous-codon median (not a log2 ….
The figure for chain 1 L582K is -2.94 DMS score: mean over two replicates of log2(f_test/f_ref + 0.5)/ln 2, minus the synonymous-codon median (not a log2 ….
Under chain 1 V565P stands -0.0718 DMS score: mean over two replicates of log2(f_test/f_ref + 0.5)/ln 2, minus the synonymous-codon median (not a log2 ….
The figure for chain 1 V565N is -0.352 DMS score: mean over two replicates of log2(f_test/f_ref + 0.5)/ln 2, minus the synonymous-codon median (not a log2 ….
On to chain 1 V565A, for which the screen value is -0.567 DMS score: mean over two replicates of log2(f_test/f_ref + 0.5)/ln 2, minus the synonymous-codon median (not a log2 ….
Regarding chain 1 V565H, the screen value was -1.58 DMS score: mean over two replicates of log2(f_test/f_ref + 0.5)/ln 2, minus the synonymous-codon median (not a log2 ….
Take chain 1 V565Q: the screen value is -0.327 DMS score: mean over two replicates of log2(f_test/f_ref + 0.5)/ln 2, minus the synonymous-codon median (not a log2 ….
Under chain 1 P535D stands 0.473 DMS score: mean over two replicates of log2(f_test/f_ref + 0.5)/ln 2, minus the synonymous-codon median (not a log2 …; under chain 1 P535S, 0.342 DMS score: mean over two replicates of log2(f_test/f_ref + 0.5)/ln 2, minus the synonymous-codon median (not a log2 …; under chain 1 P535E, 1.04 DMS score: mean over two replicates of log2(f_test/f_ref + 0.5)/ln 2, minus the synonymous-codon median (not a log2 ….
Under chain 1 A537G stands 0.922 DMS score: mean over two replicates of log2(f_test/f_ref + 0.5)/ln 2, minus the synonymous-codon median (not a log2 …; under chain 1 D544N, -0.362 DMS score: mean over two replicates of log2(f_test/f_ref + 0.5)/ln 2, minus the synonymous-codon median (not a log2 ….
The figure for chain 1 D544Q is 0.66 DMS score: mean over two replicates of log2(f_test/f_ref + 0.5)/ln 2, minus the synonymous-codon median (not a log2 ….
Take chain 1 D544H: the screen value was 0.503 DMS score: mean over two replicates of log2(f_test/f_ref + 0.5)/ln 2, minus the synonymous-codon median (not a log2 ….
Under chain 1 D544W stands 0.0871 DMS score: mean over two replicates of log2(f_test/f_ref + 0.5)/ln 2, minus the synonymous-codon median (not a log2 …; under chain 1 D544F, 0.632 DMS score: mean over two replicates of log2(f_test/f_ref + 0.5)/ln 2, minus the synonymous-codon median (not a log2 ….
Under chain 1 D544Y stands -0.602 DMS score: mean over two replicates of log2(f_test/f_ref + 0.5)/ln 2, minus the synonymous-codon median (not a log2 ….
Under chain 1 D544T stands 0.786 DMS score: mean over two replicates of log2(f_test/f_ref + 0.5)/ln 2, minus the synonymous-codon median (not a log2 …; under chain 1 D544K, 1.68 DMS score: mean over two replicates of log2(f_test/f_ref + 0.5)/ln 2, minus the synonymous-codon median (not a log2 …; under chain 1 D544P, -0.888 DMS score: mean over two replicates of log2(f_test/f_ref + 0.5)/ln 2, minus the synonymous-codon median (not a log2 ….
On to chain 1 D544V, for which the screen value is 0.356 DMS score: mean over two replicates of log2(f_test/f_ref + 0.5)/ln 2, minus the synonymous-codon median (not a log2 ….
Turning to chain 1 I560M, the screen value was 0.263 DMS score: mean over two replicates of log2(f_test/f_ref + 0.5)/ln 2, minus the synonymous-codon median (not a log2 ….
Under chain 1 I560C stands 0.328 DMS score: mean over two replicates of log2(f_test/f_ref + 0.5)/ln 2, minus the synonymous-codon median (not a log2 …; under chain 1 E573Q, -0.0881 DMS score: mean over two replicates of log2(f_test/f_ref + 0.5)/ln 2, minus the synonymous-codon median (not a log2 ….
Consider chain 1 E573I, for which the screen value is -0.283 DMS score: mean over two replicates of log2(f_test/f_ref + 0.5)/ln 2, minus the synonymous-codon median (not a log2 ….
The figure for chain 1 E573T is 0.75 DMS score: mean over two replicates of log2(f_test/f_ref + 0.5)/ln 2, minus the synonymous-codon median (not a log2 …; for chain 1 E573V it is 0.415 DMS score: mean over two replicates of log2(f_test/f_ref + 0.5)/ln 2, minus the synonymous-codon median (not a log2 ….
